Results taken from the RNAGym collection of RNA variant scans (doi:10.7554/elife.80360).

B1: HDV Ribozyme (parent)
chain: GGCCGGCAUGGUCCCAGCCUCCUCGCUGGCGCCGGCUGGGCAACAUUCCGAGGGGACCGUCCCCUCGGUAAUGGCGAAUGGGACCCA

Variants of: B1
Assay: self-cleavage, relative activity (ratio to wild type); higher = more cleavage; co-transcriptional

**Q.** For GGCCGGCAUGGUCCCAGUCUCCUCGCUGGCGCCGGCUGGGCAACAUUCUGAGGGGACCGUCCCCUCGGUAAUGGCGAAUGGGACCCA, which self-cleavage is on record?
**A.** Its self-cleavage is 0.587.

**Q.** Which self-cleavage does the source give for GGCCGGCAUGGUCCCAGCCUCCUCGCUGGCGGCGGCAGGGCAACAUUCCGAGGGGACCGUCCCCUCGGUAAUGGCGAAUGGGACCCA here?
**A.** The self-cleavage was 0.293.

**Q.** Which self-cleavage does the source give for GGCCGGCAUGGUCCCAGCCUCCUCGCUGGCGACGGCUGGGCAACAUUCCGAGGGGACCGUCCCCUCGGUAAUGGCGAAUGGGACGCA here?
**A.** The self-cleavage was 0.252.

**Q.** For GGCCGGCAAGGUCCCAGCCUCCUCGCUGGCGCCGGCUGGGCAACAUUCCGGGGGGACCGUCCCCUCGGUAAUGGCGAAUGGGACCCA, which self-cleavage is on record?
**A.** Its self-cleavage is 0.59.

**Q.** For GGCCGGCAUGGUCCCAGCCUUCUCGCUGGCGCCGGCUGGGCAACAUUCCGAGGGGACCGUCCCCUCGGUAAUGGCCAAUGGGACCCA, which self-cleavage is on record?
**A.** The self-cleavage was 0.347.

**Q.** For GGCCGGCAUUGUCCUAGCCUCCUCGCUGGCGCCGGCUGGGCAACAUUCCGAGGGGACCGUCCCCUCGGUAAUGGCGAAUGGGACCCA, which self-cleavage is on record?
**A.** The self-cleavage was 0.445.

**Q.** Which self-cleavage does the source give for GGCCGGCAUGGUCCCAGCCUCCUCGCUGGCGCCGGCUGGGCAACAUUCCGAGGUGACCGCCCCCUCGGUAAUGGCGAAUGGGACCCA here?
**A.** The self-cleavage was 1.

**Q.** With GGCCGGCAUGGUCCCACCCUCCUCGCUGGCGCCGGCUGGGCAACAUUCCGAGGGGACCGUCCCCUCGGUAAUGGCGAAUGGUACCCA as the variant, how does the self-cleavage read?
**A.** The self-cleavage was 0.

**Q.** For GGCCGGCAUGGUCCCAGCCUCCUCGCUGGCUCCGGCUGGGCAACAUUCCGAGGUGACCGUCCCCUCGGUAAUGGCGAAUGGGACCCA, which self-cleavage is on record?
**A.** Its self-cleavage is 0.369.

**Q.** For GGCCGGCAUGGUCCCAGCCUCCUCGCUGGCGCCGGCUGGGGACCAUUCCGAGGGGACCGUCCCCUCGGUAAUGGCGAAUGGGACCCA, which self-cleavage is on record?
**A.** Its self-cleavage is 0.308.

**Q.** For GGCCGGCAUGGUCCCAGCCUCCUCGCUGGCGACGGCUGGGCAACAUUCCGAGGCGACCGUCCCCUCGGUAAUGGCGAAUGGGACCCA, which self-cleavage is on record?
**A.** The self-cleavage was 0.356.

**Q.** With GGCCGGCAUGGUCCCAGCCUCCUCGCUCGCGCCGGCUGGGCAACAUUCCGAGGGGACCGUCCCCUCGGUCAUGGCGAAUGGGACCCA as the variant, how does the self-cleavage read?
**A.** Its self-cleavage is 0.104.

**Q.** Which self-cleavage does the source give for GGCCGGCAUGGUCCCAGACUCCUCGCUAGCGCCGGCUGGGCAACAUUCCGAGGGGACCGUCCCCUCGGUAAUGGCGAAUGGGACCCA here?
**A.** The self-cleavage was 0.128.

**Q.** For GGCCGGCAUGGUCCCAGCCUCCUCGCUGGCGCCGGCUGGGCAACAUGCCGAGGGGACCGUCCCCUCGGUAAUGGCGACUGGGACCCA, which self-cleavage is on record?
**A.** Its self-cleavage is 0.185.

**Q.** With GGCCGGCAUGGUCCCAGGCUCCUCGCUGGCGCCGGCUGGGCAACAUUCCGAGGGGACCGUCCUCUCGGUAAUGGCGAAUGGGACCCA as the variant, how does the self-cleavage read?
**A.** The self-cleavage was 0.0386.

**Q.** Which self-cleavage does the source give for GGCCGGCAUGGUCCUAGCCUCCUCGCUGGCGCCGGCUGGGCAACAUUUCGAGGGGACCGUCCCCUCGGUAAUGGCGAAUGGGACCCA here?
**A.** The self-cleavage was 0.852.

**Q.** For GGCCGGCAUGGUCCCAGCCUCCUCGCUGGCGCCGGCUGGGCAACAUUCCGAGGGGAUCGUGCCCUCGGUAAUGGCGAAUGGGACCCA, which self-cleavage is on record?
**A.** Its self-cleavage is 0.967.

**Q.** For GGCCGGCAUGCUCCCAGCCUCCUCGCUGGCGCCGGCUGGGCAACAUUCCGAGGGUACCGUCCCCUCGGUAAUGGCGAAUGGGACCCA, which self-cleavage is on record?
**A.** Its self-cleavage is 0.305.

**Q.** Which self-cleavage does the source give for GGCCGGCAUGGUCCCAGCCUCCUCGCUGGCGCCGGCGGGGCAACAUUCCGAGGGGACCGUCCCCUCGGUAAUGGCGAAUGGGACCAA here?
**A.** Its self-cleavage is 0.185.

**Q.** Which self-cleavage does the source give for GGCCGGCAUGGUCCCAGCCUCGUCGCUGGCGCCGGCUGGGCAACAUUCCGAGGGGACCUUCCCCUCGGUAAUGGCGAAUGGGACCCA here?
**A.** The self-cleavage was 0.0817.

**Q.** For GGCCGGCAUGGUCCCAGCCUCCUCGCUGGCGCCGGCUGGGCAACAUUCCGAGGGGACCGUCCCCUCGCUCAUGGCGAAUGGGACCCA, which self-cleavage is on record?
**A.** The self-cleavage was 0.63.

**Q.** For GGCCGGCAUGGUCCCAGCCUCCUCGCUGGCGCCGGCUGGGCAACAUUCCGAGGGGACCGUCCCAUCGGUAAUGGCGAAUGUGACCCA, which self-cleavage is on record?
**A.** Its self-cleavage is 0.379.

**Q.** For GGCCGGCAUGGUCCCAGCCUCCUCGCUGGCGCCGGCUGGGCAACAUUUCGAGGGGACCGUCCCCUCGGUAAUUGCGAAUGGGACCCA, which self-cleavage is on record?
**A.** The self-cleavage was 0.521.

**Q.** For GGCCGGCAUGGUCCCAGCCUCCUCGCGGGCGCCGGCUGGGCAACAUUCCGACGGGACCGUCCCCUCGGUAAUGGCGAAUGGGACCCA, which self-cleavage is on record?
**A.** The self-cleavage was 1.02.

**Q.** With GGCCGGCUUGGUCCCAGCCUCCUCGCUGGCGCCGGCUGGGCAACAUUCCGAGGGGACCGUCCCCUCGGUAAUAGCGAAUGGGACCCA as the variant, how does the self-cleavage read?
**A.** The self-cleavage was 0.323.

**Q.** For GGCCGGCAUGGUCCCAGCCUCCUCGCUGGCGCCGGCUGGGCAACAUUCCGAGGGGACCGUCCACUCGGUAAUGGCGAAUGGGACCCU, which self-cleavage is on record?
**A.** Its self-cleavage is 1.03.

**Q.** Which self-cleavage does the source give for GGCCGGCAGGGUCCCAGCCUCCUCGCUGGCGCCGGCUGGGCAACAUUCCGAUGGGACCGUCCCCUCGGUAAUGGCGAAUGGGACCCA here?
**A.** Its self-cleavage is 1.03.

**Q.** With GGCCGGCAUGGUCCCAGCCUCCUCGCUGGCGCCGGCUGGGUAACAUUCCGAGGGGACCGUCCCCUCGGUAAUGGCGGAUGGGACCCA as the variant, how does the self-cleavage read?
**A.** Its self-cleavage is 0.95.

**Q.** For GGCCGGCAUGGUCCCAGCCUCGUCGCUGGCGCCGGCUGGGCAACAUUCCGAGGGGACCGUCCCCUCGGUAAUGCCGAAUGGGACCCA, which self-cleavage is on record?
**A.** The self-cleavage was 0.

**Q.** Which self-cleavage does the source give for GGCCGGCAUGCACCCAGCCUCCUCGCUGGCGCCGGCUGGGCAACAUUCCGAGGGGACCGUCCCCUCGGUAAUGGCGAAUGGGACCCA here?
**A.** The self-cleavage was 0.

**Q.** Which self-cleavage does the source give for GGCCGGCAUGGUGCCAGCCUCCUCGCUGGCGCCGGCUGGGCAACAUACCGAGGGGACCGUCCCCUCGGUAAUGGCGAAUGGGACCCA here?
**A.** The self-cleavage was 0.

**Q.** For GGCCGGCAUGGUCCCAGCCUCCUCGCUGGCGCCGGCUGGGCAACAUUCCGAAGGGACCGUCCCCUCGGUAGUGGCGAAUGGGACCCA, which self-cleavage is on record?
**A.** Its self-cleavage is 0.845.
